# Laboratory results published in IntAct's records for PubMed 29039417.
# B1: Protein PTHB1 (Homo sapiens), Q3SYG4 (parent)
# chain: MSLFKARDWWSTILGDKEEFDQGCLCLANVDNSGNGQDKIIVGSFMGYLRIFSPHPAKTGDGAQAEDLLLEVDLRDPVLQVEVGKFVSGTEMLHLAVLHSRKLCVYSVSGTLGNVEHGNQCQMKLMYEHNLQRTACNMTYGSFGGVKGRDLICIQSMDGMLMVFEQESYAFGRFLPGFLLPGPLAYSSRTDSFLTVSSCQQVESYKYQVLAFATDADKRQETEQQKLGSGKRLVVDWTLNIGEQALDICIVSFNQSASSVFVLGERNFFCLKDNGQIRFMKKLDWSPSCFLPYCSVSEGTINTLIGNHNNMLHIYQDVTLKWATQLPHIPVAVRVGCLHDLKGVIVTLSDDGHLQCSYLGTDPSLFQAPNVQSRELNYDELDVEMKELQKIIKDVNKSQGVWPMTEREDDLNVSVVVSPNFDSVSQATDVEVGTDLVPSVTVKVTLQNRVILQKAKLSVYVQPPLELTCDQFTFEFMTPDLTRTVSFSVYLKRSYTPSELEGNAVVSYSRPTDRNPDGIPRVIQCKFRLPLKLICLPGQPSKTASHKITIDTNKSPVSLLSLFPGFASQSDDDQVNVMGFHFLGGARITVLASKTSQRYRIQSEQFEDLWLITNELILRLQEYFEKQGVKDFACSFSGSIPLQEYFELIDHHFELRINGEKLEELLSERAVQFRAIQRRLLARFKDKTPAPLQHLDTLLDGTYKQVIALADAVEENQGNLFQSFTRLKSATHLVILLIALWQKLSADQVAILEAAFLPLQEDTQELGWEETVDAAISHLLKTCLSKSSKEQALNLNSQLNIPKDTSQLKKHITLLCDRLSKGGRLCLSTDAAAPQTMVMPGGCTTIPESDLEERSVEQDSTELFTNHRHLTAETPRPEVSPLQGVSE
# partner: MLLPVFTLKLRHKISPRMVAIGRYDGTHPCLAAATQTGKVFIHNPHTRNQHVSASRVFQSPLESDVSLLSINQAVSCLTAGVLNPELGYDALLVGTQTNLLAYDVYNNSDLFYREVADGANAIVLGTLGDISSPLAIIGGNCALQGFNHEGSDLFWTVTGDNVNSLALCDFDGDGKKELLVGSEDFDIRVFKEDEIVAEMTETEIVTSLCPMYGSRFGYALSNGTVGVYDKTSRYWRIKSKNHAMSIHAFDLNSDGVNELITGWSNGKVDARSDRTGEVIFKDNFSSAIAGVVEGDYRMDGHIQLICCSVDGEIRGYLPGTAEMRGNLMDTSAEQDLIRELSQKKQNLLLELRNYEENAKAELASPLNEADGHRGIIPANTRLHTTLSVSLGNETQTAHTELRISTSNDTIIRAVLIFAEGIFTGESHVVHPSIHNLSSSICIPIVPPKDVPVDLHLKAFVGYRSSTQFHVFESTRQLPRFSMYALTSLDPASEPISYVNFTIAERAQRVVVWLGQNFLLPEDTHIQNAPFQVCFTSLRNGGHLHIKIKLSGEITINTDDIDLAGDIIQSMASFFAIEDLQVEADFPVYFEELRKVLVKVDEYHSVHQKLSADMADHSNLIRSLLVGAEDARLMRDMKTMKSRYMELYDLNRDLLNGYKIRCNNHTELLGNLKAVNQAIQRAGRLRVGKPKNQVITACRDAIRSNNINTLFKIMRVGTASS
# Variants of: B1
# Details: with bbs2_human BBS2, Q9BXC9
row,effect of a mutation on the interaction,Variant
1,with no effect,F606E
2,with no effect,R824K
3,with no effect,S637E
4,with no effect,D804E
5,with no effect,H867E
6,with no effect,H867K
7,with no effect,R854E
8,with no effect,K789A
9,with no effect,R674E
10,with no effect,R726E
11,with no effect,I751A
12,with no effect,G701A
13,with no effect,L870E
14,with no effect,L666E
15,with no effect,E873K
16,with no effect,H651K
17,with no effect,I612E
18,with no effect,I812A
19,with no effect,D631A
20,with no effect,D631E
21,with no effect,C634K
22,with no effect,C634A
23,with no effect,Q760K

row,effect of a mutation on the interaction,Variant
1,with no effect,L698K
2,with no effect,L736E
3,disrupting interaction strength,V838A
4,with no effect,H778K
5,with no effect,T861A
6,with no effect,Q798A
7,with no effect,L780A
8,with no effect,L780E
9,with no effect,N866E
10,with no effect,A712E
11,with no effect,Q717A
12,with no effect,Q627A
13,with no effect,F721E
14,with no effect,F721A
15,with no effect,L766A
16,with no effect,T813E
17,with no effect,T813K
18,with no effect,I707K
19,with no effect,L681A
20,with no effect,P689E
21,with no effect,S639K
22,with no effect,S639A
23,with no effect,Y703A

row,effect of a mutation on the interaction,Variant
1,with no effect,R656A
2,with no effect,R656K
3,with no effect,Q605K
4,with no effect,T844E
5,with no effect,A755K
6,with no effect,L733K
7,with no effect,T771K
8,with no effect,R619A
9,with no effect,K661A
10,with no effect,C816A
11,with no effect,D696K
12,with no effect,V713E
13,with no effect,Y623E
14,with no effect,P758A
15,with no effect,F673E
16,disrupting interaction strength,A690V
17,with no effect,A746E
18,with no effect,A746K
19,with no effect,K728A
20,with no effect,V772E
21,with no effect,E769K
22,with no effect,C783E
23,with no effect,L752A

row,effect of a mutation on the interaction,Variant
1,with no effect,T725A
2,with no effect,L827E
3,with no effect,F646A
4,with no effect,L655A
5,with no effect,F724E
6,with no effect,F724A
7,with no effect,Q705E
8,with no effect,S788K
9,with no effect,Q835E
10,disrupting interaction strength,Q835M
11,with no effect,I617A
12,with no effect,I617K
13,with no effect,E887A
14,with no effect,E887K
15,with no effect,I657E
16,with no effect,W741K
17,with no effect,S880A
18,with no effect,R669K
19,with no effect,P641K
20,with no effect,K810A

# The next lines start with the variant.
row,Variant,effect of a mutation on the interaction
1,T543K,with no effect
2,N503A,with no effect
3,A544E,with no effect
4,D480E,with no effect
5,V522E,with no effect
6,D571E,with no effect
7,P511A,with no effect
8,P511K,with no effect
9,E466A,with no effect
10,P464A,with no effect
11,I451E,with no effect
12,L529A,with no effect
13,P516A,with no effect
14,V577K,with no effect
15,V424A,with no effect
16,V416A,with no effect
17,T445E,with no effect
18,T445K,with no effect
19,C535E,with no effect
20,A592E,with no effect
21,Y508E,with no effect
22,Y508K,with no effect
23,E499A,with no effect
24,E499K,with no effect

row,Variant,effect of a mutation on the interaction
1,Q426E,with no effect
2,I519E,with no effect
3,T428K,with no effect
4,K594E,with no effect
5,D409A,with no effect
6,F472A,with no effect
7,G502E,with no effect
8,P520E,with no effect
9,S458A,with no effect
10,S458E,with no effect
11,S486E,with no effect
12,S486R,disrupting interaction strength
13,G585R,disrupting interaction strength
14,S488E,with no effect
15,S488A,with no effect
16,T478K,with no effect
17,T478E,with no effect
18,I534A,with no effect
19,Q524E,with no effect
20,Q524A,with no effect
21,S498L,disrupting interaction strength
22,R483A,with no effect
23,S439E,with no effect
24,Q462K,with no effect

row,Variant,effect of a mutation on the interaction
1,L446K,with no effect
2,A455E,with no effect
3,A455K,with no effect
4,T595E,with no effect
5,E501A,with no effect
6,P556E,with no effect
7,T512E,with no effect
8,F476K,with no effect
9,K542E,with no effect
10,L452E,with no effect
11,N420A,with no effect
12,V417A,with no effect
13,H546E,with no effect
14,H546A,with no effect
15,T405K,with no effect
16,V413K,with no effect
17,L533E,with no effect
18,T482E,with no effect
19,Q471K,with no effect
20,L562K,with no effect
21,L560A,with no effect
22,T468K,with no effect
23,V430A,with no effect
24,S570A,with no effect

row,Variant,effect of a mutation on the interaction
1,S570E,with no effect
2,P530A,with no effect
3,R510A,with no effect
4,V442E,with no effect
5,V442A,with no effect
6,D551K,with no effect
7,V506A,with no effect
8,V506E,with no effect
9,A586E,with no effect
10,N553T,disrupting interaction strength
11,L531E,with no effect
12,H581Y,disrupting interaction strength
13,Q539A,with no effect
14,D429E,with no effect
15,D429K,with no effect
16,D429A,with no effect
17,D517E,with no effect
18,D517K,with no effect
19,S561K,with no effect
20,S509E,with no effect
21,L591K,with no effect
22,P463A,with no effect
23,G538E,with no effect
